In the supplement of paper PMC10126150 one finds switch fluorescence ratio data, which are given here for 78 sequences.

± gives the standard deviation of the averaged measurements.

This data set has as its system ATP. Description: switch fluorescence ratio, 500 uM ATP over buffer (Cy3 cluster intensity, sum of 5 cycles each) (fold (ratio)); higher = stronger signal-on switching upon ATP binding; sequences stand for … in TCGTCGGCAGCGTCAGATGTGTATAAGAGACAGTTTTTTTTTTTTTTTTTTTTTTTTT…TC. The conditions noted are these: aptamer strand: ATP DNA aptamer (quencher-CACCTGGGGGAGTATTGCGGAGGAAGG + anchor), 100 nM annealed; ATP concentration: 500 uM. The procedure, abridged: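 Clusters carrying Cy3-labelled switching strands on a modified Illumina MiSeq flow-cell were annealed to 100 nM quencher-labelled ATP aptamer and imaged in selection buffer. They were imaged again after 15 min with 500 uM ATP at 22 °C, over five buffer/ATP cycles with NaOH stripping and re-annealing in between. For each cluster, the fluorescence ratio is the summed Cy3 intensity of the target cycles divided by that of the buffer cycles, averaged per switch-domain sequence. Clusters outside 100-1000 RFU were left out.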
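Note: ATP exposure 15 min at 22 °C before imaging.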

For the sequence TTGTAGCTTT, the switch fluorescence ratio was 1.12 ± 0.089.

For TTGTAGGAGG, the switch fluorescence ratio is 0.9811 ± 0.0032.

For TTGTAGGATA, the switch fluorescence ratio came out at 0.994 ± 0.012.

Turning to TTGTAGGGGT, the switch fluorescence ratio is 1.02 ± 0.052.

Take TTGTAGGGT: the switch fluorescence ratio came to 0.986 ± 0.014.

On to TTGTAGTCTC, for which the switch fluorescence ratio stood at 1.03 ± 0.11.

TTGTATTTA: the switch fluorescence ratio stood at 1.01 ± 0.05.

As for TTGTATTTTG, the switch fluorescence ratio turned out to be 0.985 ± 0.038.

For the sequence TTGTATTTTT, the switch fluorescence ratio was 0.98 ± 0.033.

On to TTGTCATTTT, for which the switch fluorescence ratio stood at 1.04 ± 0.067.

Consider TTGTCGGCG, for which the switch fluorescence ratio stood at 1 ± 0.013.

Regarding TTGTCGGCTT, the switch fluorescence ratio was 1.002 ± 0.0092.

With TTGTCGTGCC, the switch fluorescence ratio is 1.031 ± 0.0098.

Take TTGTCGTGTG: the switch fluorescence ratio is 1 ± 0.033.

Regarding TTGTCTGTTA, the switch fluorescence ratio is 1 ± 0.043.

For the sequence TTGTGAAAAA, the switch fluorescence ratio worked out at 0.972 ± 0.026.

As to TTGTGAAATT, the switch fluorescence ratio amounted to 0.993 ± 0.015.

Regarding TTGTGAACCG, the switch fluorescence ratio was 0.973 ± 0.014.

Turning to TTGTGAATTA, the switch fluorescence ratio turned out to be 0.982 ± 0.022.

As for TTGTGAATTC, the switch fluorescence ratio came to 0.977 ± 0.043.

For the sequence TTGTGAGTTT, the switch fluorescence ratio turned out to be 1 ± 0.055.

As for TTGTGATGTG, the switch fluorescence ratio was 0.986 ± 0.023.

In the case of TTGTGATTAG, the switch fluorescence ratio came to 0.982 ± 0.032.

Consider TTGTGCAAGG, for which the switch fluorescence ratio came to 1.34 ± 0.47.

In the case of TTGTGCATTT, the switch fluorescence ratio turned out to be 1.01 ± 0.011.

For the sequence TTGTGCCGGG, the switch fluorescence ratio was 0.9391 ± 0.0045.

Take TTGTGCGGGA: the switch fluorescence ratio worked out at 0.999 ± 0.013.

With TTGTGCTGGG, the switch fluorescence ratio came to 0.998 ± 0.022.

For the sequence TTGTGCTTTA, the switch fluorescence ratio is 1.006 ± 0.0062.

On to TTGTGGAGAG, for which the switch fluorescence ratio stood at 1.09 ± 0.12.

For the sequence TTGTGGAGTT, the switch fluorescence ratio was found to be 1.01 ± 0.017.

Take TTGTGGGAGG: the switch fluorescence ratio is 0.997 ± 0.033.

As to TTGTGGGCGA, the switch fluorescence ratio is 0.9947 ± 0.0014.

Turning to TTGTGGGGAC, the switch fluorescence ratio was found to be 1 ± 0.033.

Consider TTGTGGGGGT, for which the switch fluorescence ratio is 0.998 ± 0.02.

Take TTGTGGGTTG: the switch fluorescence ratio was found to be 1.89 ± 1.2.

As to TTGTGGTCGC, the switch fluorescence ratio stood at 0.97 ± 0.024.

For the sequence TTGTGGTTGG, the switch fluorescence ratio is 0.994 ± 0.021.

For TTGTGTAGTT, the switch fluorescence ratio amounted to 1.01 ± 0.024.

For TTGTGTATGC, the switch fluorescence ratio amounted to 0.958 ± 0.1.

Turning to TTGTGTGGCA, the switch fluorescence ratio was found to be 1.02 ± 0.054.

Turning to TTGTGTGGGT, the switch fluorescence ratio was determined as 0.993 ± 0.02.

As to TTGTGTGGTT, the switch fluorescence ratio was determined as 0.963 ± 0.038.

Turning to TTGTGTGTCA, the switch fluorescence ratio came to 0.994 ± 0.022.

Turning to TTGTGTTGCG, the switch fluorescence ratio was 1.03 ± 0.051.

For the sequence TTGTGTTGGG, the switch fluorescence ratio is 1.01 ± 0.034.

For TTGTGTTTCT, the switch fluorescence ratio came out at 0.9974 ± 0.0066.

In the case of TTGTGTTTTG, the switch fluorescence ratio came out at 1.16 ± 0.39.

For TTGTTACACA, the switch fluorescence ratio was 1.05 ± 0.043.

With TTGTTAGGAT, the switch fluorescence ratio is 1.07 ± 0.062.

Take TTGTTATATT: the switch fluorescence ratio was 0.983 ± 0.026.

For the sequence TTGTTCATAC, the switch fluorescence ratio is 1.27 ± 0.37.

Consider TTGTTCGACT, for which the switch fluorescence ratio turned out to be 1.02 ± 0.016.

Take TTGTTCGGCC: the switch fluorescence ratio worked out at 0.992 ± 0.035.

Consider TTGTTGAAAC, for which the switch fluorescence ratio was 1.03 ± 0.085.

TTGTTGAGAG: the switch fluorescence ratio was 1.02 ± 0.022.

On to TTGTTGCCTG, for which the switch fluorescence ratio worked out at 0.9907 ± 0.0083.

Take TTGTTGCGGG: the switch fluorescence ratio was determined as 0.977 ± 0.019.

For TTGTTGCTTA, the switch fluorescence ratio is 1.05 ± 0.006.

In the case of TTGTTGGGGT, the switch fluorescence ratio was 1.05 ± 0.12.

Turning to TTGTTGTGTG, the switch fluorescence ratio is 0.973 ± 0.033.

Regarding TTGTTGTTAT, the switch fluorescence ratio was determined as 0.991 ± 0.017.

Take TTGTTTCCGA: the switch fluorescence ratio stood at 1 ± 0.058.

On to TTGTTTCGGT, for which the switch fluorescence ratio amounted to 1.02 ± 0.063.

Take TTGTTTGATA: the switch fluorescence ratio was determined as 0.9883 ± 0.0073.

For TTGTTTGGAC, the switch fluorescence ratio worked out at 1.03 ± 0.013.

With TTGTTTGTGC, the switch fluorescence ratio came out at 1.02 ± 0.023.

In the case of TTGTTTTATC, the switch fluorescence ratio worked out at 1 ± 0.021.

In the case of TTGTTTTTGG, the switch fluorescence ratio is 0.987 ± 0.032.

Take TTGTTTTTTA: the switch fluorescence ratio is 1.01 ± 0.016.

Regarding TTTAAAAAAC, the switch fluorescence ratio stood at 1 ± 0.026.

For TTTAAAAATT, the switch fluorescence ratio is 0.987 ± 0.026.

In the case of TTTAAAACCA, the switch fluorescence ratio came out at 1.004 ± 0.0039.

As to TTTAAAACGG, the switch fluorescence ratio came out at 1.01 ± 0.06.

As to TTTAAAATCT, the switch fluorescence ratio was 1.016 ± 0.0092.

Regarding TTTAAAGACT, the switch fluorescence ratio came to 1.01 ± 0.056.

As for TTTAAAGATG, the switch fluorescence ratio is 0.999 ± 0.018.

As to TTTAAAGATT, the switch fluorescence ratio was 1.01 ± 0.037.
